The record followed here is patent EP4703387A1 (University of Tsukuba, dated 2026).

For test [1], the target named is T1, human CD300A-Q (human, UniProt Q9UGN4 18-299).
T1 construct: whole, on cells; also called huCD300A-Q; human CD300A^Gln111
T1 sequence (looked up): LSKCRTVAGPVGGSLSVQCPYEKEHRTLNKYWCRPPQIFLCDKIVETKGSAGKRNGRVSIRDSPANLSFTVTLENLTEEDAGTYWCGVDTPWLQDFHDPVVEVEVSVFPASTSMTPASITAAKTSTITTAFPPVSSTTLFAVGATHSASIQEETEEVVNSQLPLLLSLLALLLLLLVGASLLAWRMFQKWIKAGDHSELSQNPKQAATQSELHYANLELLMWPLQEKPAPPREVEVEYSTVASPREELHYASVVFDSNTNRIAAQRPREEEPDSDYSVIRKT
The test can be described thus: flow cytometry analysis using CD300A-Q.

In test [2] the target is T2, human CD300A-R (as used in the BLI measurement) (human, UniProt Q9UGN4 18-180, limits assumed).
T2 sequence (looked up): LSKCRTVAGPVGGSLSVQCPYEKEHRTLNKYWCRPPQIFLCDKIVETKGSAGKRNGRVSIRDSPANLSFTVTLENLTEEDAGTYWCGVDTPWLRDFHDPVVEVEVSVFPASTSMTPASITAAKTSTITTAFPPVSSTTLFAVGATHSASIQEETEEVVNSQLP
In words: biolayer interferometry (BLI); format not described. (In general: BLI is a label-free optical method that tracks binding on a fibre tip over time.)

The target of test [3] is T3, human CD300C (human, UniProt Q08708 21-224).
T3 construct: whole, on cells; also called huCD300C; BW/huCD300C
T3 sequence (looked up): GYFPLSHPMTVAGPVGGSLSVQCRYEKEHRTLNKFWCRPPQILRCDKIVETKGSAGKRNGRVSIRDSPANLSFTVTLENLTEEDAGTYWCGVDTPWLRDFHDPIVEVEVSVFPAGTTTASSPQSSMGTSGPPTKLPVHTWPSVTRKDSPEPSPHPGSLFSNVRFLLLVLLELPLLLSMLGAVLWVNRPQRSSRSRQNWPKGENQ
In words: flow cytometry on BW/huCD300C cells, biotinylated antibody with SA-APC.

Test [4] has as its target T1, human CD300A-Q. The test can be described thus: assay not named for Hu NO. 1V on CD300A-Q (CD300A-Q flow cytometry is listed for Hu NO. 1R, 1U and 1W). (A flow cytometer gives signals particle by particle.)
Test [5] has as its target T1, human CD300A-Q. The test can be described thus: assay not named for Hu NO. 1T on CD300A-Q (CD300A-Q flow cytometry is listed for Hu NO. 1R, 1U and 1W).
Test [6] concerns the target T3, human CD300C. The test can be described thus: flow cytometry on BW/huCD300C cells, purified antibody.
Test [7] concerns the target T1, human CD300A-Q. In words: flow cytometry on BW/huCD300A-Q cells, purified antibody, 0.5 µg per 1 × 10^5 cells.
The target in test [8] is T1, human CD300A-Q. The test can be described thus: assay not given; reference antibody in the CD300A-Q flow cytometry comparison of paragraph 258.

Substitutions are numbered along the chain they refer to. In names and notes the source's numbering stands.

B1: HuNO.1R (antibody, V domains shown)
VH: EVQLVESGGGLVQPGGSLRLSCAASGFTFSSYGMSWVRQAPGKRLEWVATISSGGSYTYYPDSVKGRFTISRDNAKNSLYLQMNSLRAEDTAVYYCARHGDYGYPWFAYWGQGTMVTVSS
VL: QIQMTQSPSSLSASVGDRVTMTCTASSSVSSSYLHWYQQKPGKAPKLWIYSTSNLASGVPSRFSGSGSGTDYTLTISSLQPEDFATYYCHQYHRSHTFGGGTKVEIK
notes: Transient HEK293 supernatant; Human IgG/kappa constant regions
Turning to B1, the binding result in test [1] is on record as “binds”.

B2: HuNO.1U (antibody, human IgG1, kappa, L234A L235A, V domains shown)
VH: B1 VH with G42D
VL: QIQMTQSPSSLSASVGDRVTMTCTASSSVSSSYLHWYQQKPGKAPKLWIYSTSNLASGVPSRFSGSGSGTDYTLTISSLQPEDFATYYCHQYHRSHTFGGGTKVEIKR
notes: VH = Hu NO; also called Humanized NO; 1 antibody
The term Kd denotes a measure of binding affinity in units of concentration. High values mean lower affinity, low ones higher affinity. In test [2], B2 returned a Kd of 22 nM. Besides, the binding result in test [3] is on record as “no binding (tested: 0.5 µg antibody per 1 × 10^5 cells)”.

B3: HuNO.1W (antibody, V domains shown)
VH: B1 VH with G10D
VL: B1 VL
notes: as for B1
With B3, the binding result in test [1] was “binds”.

B4: HuNO.1V (antibody, V domains shown)
VH: B1 VH with V93M
VL: B1 VL
notes: Position 89 may be a Kabat number rather than a count on the entry; Transient HEK293 supernatant; Human IgG/kappa constant regions
Turning to B4, in test [4], the binding result is listed as “binds”.

B5: HuNO.1T (antibody, V domains shown)
VH: B1 VH with R19K
VL: B1 VL
notes: as for B1
For the molecule B5, the binding result in test [5] is reported as “binds”.

B6: Antibody NO. 1 (antibody, V domains shown)
VH: EVQLVESGGDLVKPGGSLKLSCAASGFTFSSYGMSWVRQTPDKRLEWVATISSGGSYTYYPDSVKGRFTISRDNAKNTLYLQMSSLKSEDTAMYYCARHGDYGYPWFAYWGQGTLVTVSA
VL: QIVLTQSPAIMSASLGERVTMTCTASSSVSSSYLHWYQQKPGSSPKLWIYSTSNLASGVPARFSGSGSGTSYSLTISSMEAEDAATYYCHQYHRSHTFGGGTKLEIK
notes: Mouse monoclonal antibody from a hybridoma, purified from ascites; also called mouse Antibody NO
Take B6: the figures for the binding result in test [6] and in test [7] were “no binding (tested: 0.5 µg antibody per 1 × 10^5 cells)” and “binds”, respectively.

B7: chimeric NO. 1 IgG1/kappa antibody (Ch NO. 1) (antibody, V domains shown)
VH: B6 VH
VL: B6 VL
notes: Mouse NO; 1 VH and VL on human γ-1 and κ constant regions; The γ-1 chain carries L234A/L235A; also called mouse-human chimeric NO; 1 IgG1/kappa antibody
In the case of B7, in test [8], the binding result is recorded as “binds”.

B8: Antibody NO. 3 (antibody, V domains shown)
VH: QIQLVQSGPELKKPGETVKISCKASGYTFTHYGLNWVKQAPGKGLQWMGWIHTYTGESTYADDFKGRSAFSLETSASTAYLQINNLKNEDTATYFCARGGKDALDYWGQGTSVTVSS
VL: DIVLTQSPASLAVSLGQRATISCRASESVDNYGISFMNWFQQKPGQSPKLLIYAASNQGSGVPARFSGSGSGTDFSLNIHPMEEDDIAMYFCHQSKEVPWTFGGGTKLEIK
notes: Mouse monoclonal antibody from a hybridoma
With B8, the binding result in test [6] was “no binding (tested: 0.5 µg antibody per 1 × 10^5 cells)”; in test [7], “binds”.
